Where two headings read alike, the source gives them in different places. *1 amine or outer side, *2 acyl side, *3 side chain or, on linkers, in order; H or OH if unused. Where no end group is shown, it is not given here. Side-chain parts run from the residue outwards. The star is where a group is joined. C18 diacid = O=C(O)CCCCCCCCCCCCCCCCC(=O)*; C16 diacid = O=C(O)CCCCCCCCCCCCCCC(=O)*; γGlu = O=C(O)[C@H](CCC(=O)[*:2])N[*:1]; AEEA = NCCOCCOCC(=O)O
How the values were obtained:
human GIP receptor [1] = molecular target: T1, human GIP receptor (human, UniProt P48546 22-466); assay: cell-based or functional assay
T1 sequence (looked up): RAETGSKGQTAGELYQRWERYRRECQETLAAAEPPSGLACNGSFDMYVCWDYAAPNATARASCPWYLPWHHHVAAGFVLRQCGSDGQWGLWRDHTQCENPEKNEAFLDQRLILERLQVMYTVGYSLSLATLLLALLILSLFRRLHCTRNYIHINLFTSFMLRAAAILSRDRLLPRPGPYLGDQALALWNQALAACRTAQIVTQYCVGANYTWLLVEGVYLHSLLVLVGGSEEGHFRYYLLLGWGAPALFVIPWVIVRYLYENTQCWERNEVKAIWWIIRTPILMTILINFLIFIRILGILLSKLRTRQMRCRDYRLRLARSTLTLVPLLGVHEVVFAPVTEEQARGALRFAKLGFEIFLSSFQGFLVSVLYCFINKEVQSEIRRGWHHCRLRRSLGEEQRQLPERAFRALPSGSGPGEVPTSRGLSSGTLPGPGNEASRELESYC

human GIP receptor [2] = molecular target: T1, human GIP receptor; assay: cell-based or functional assay; remark: listed apart in the source

Binder | cAMP antagonism (human GIP receptor [1]) | cAMP antagonism % inhib (human GIP receptor [1]) | cAMP antagonism log (human GIP receptor [1]) | cAMP agonism % Emax (human GIP receptor [2]) | cAMP antagonism (human GIP receptor [2]) | cAMP antagonism % inhib (human GIP receptor [2]) | cAMP antagonism pIC50 (human GIP receptor [2]) | cAMP agonism Emax (human GIP receptor [1])
EGTFISDYSIAMDKIK(C16 diacid)QQDFVNWLLAQKGPS-OH (N-terminus assumed; SMILES CC[C@H](C)[C@H](NC(=O)[C@H](CO)NC(=O)[C@H](Cc1ccc(O)cc1)NC(=O)[C@H](CC(=O)O)NC(=O)[C@H](CO)NC(=O)[C@@H](NC(=O)[C@H](Cc1ccccc1)NC(=O)[C@@H](NC(=O)CNC(=O)[C@@H](N)CCC(=O)O)[C@@H](C)O)[C@@H](C)CC)C(=O)N[C@@H](C)C(=O)N[C@@H](CCSC)C(=O)N[C@@H](CC(=O)O)C(=O)N[C@@H](CCCCN)C(=O)N[C@H](C(=O)N[C@@H](CCCCNC(=O)CCCCCCCCCCCCCCC(=O)O)C(=O)N[C@@H](CCC(N)=O)C(=O)N[C@@H](CCC(N)=O)C(=O)N[C@@H](CC(=O)O)C(=O)N[C@@H](Cc1ccccc1)C(=O)N[C@H](C(=O)N[C@@H](CC(N)=O)C(=O)N[C@@H](Cc1c[nH]c2ccccc12)C(=O)N[C@@H](CC(C)C)C(=O)N[C@@H](CC(C)C)C(=O)N[C@@H](C)C(=O)N[C@@H](CCC(N)=O)C(=O)N[C@@H](CCCCN)C(=O)NCC(=O)N1CCC[C@H]1C(=O)N[C@@H](CO)C(=O)O)C(C)C)[C@@H](C)CC) [AT473] | 26 nM | 100% | -7.6 log M | 0% | 2.93 nM | 88% | 8.5 | 
EGTFISDYSIAMDKIK([AEEA-AEEA-γGlu-C16 diacid])QQDFVNWLLAQKGKKNDW-OH (N-terminus assumed; SMILES CC[C@H](C)[C@H](NC(=O)[C@H](CO)NC(=O)[C@H](Cc1ccc(O)cc1)NC(=O)[C@H](CC(=O)O)NC(=O)[C@H](CO)NC(=O)[C@@H](NC(=O)[C@H](Cc1ccccc1)NC(=O)[C@@H](NC(=O)CNC(=O)[C@@H](N)CCC(=O)O)[C@@H](C)O)[C@@H](C)CC)C(=O)N[C@@H](C)C(=O)N[C@@H](CCSC)C(=O)N[C@@H](CC(=O)O)C(=O)N[C@@H](CCCCN)C(=O)N[C@H](C(=O)N[C@@H](CCCCNC(=O)COCCOCCNC(=O)COCCOCCNC(=O)CC[C@H](NC(=O)CCCCCCCCCCCCCCC(=O)O)C(=O)O)C(=O)N[C@@H](CCC(N)=O)C(=O)N[C@@H](CCC(N)=O)C(=O)N[C@@H](CC(=O)O)C(=O)N[C@@H](Cc1ccccc1)C(=O)N[C@H](C(=O)N[C@@H](CC(N)=O)C(=O)N[C@@H](Cc1c[nH]c2ccccc12)C(=O)N[C@@H](CC(C)C)C(=O)N[C@@H](CC(C)C)C(=O)N[C@@H](C)C(=O)N[C@@H](CCC(N)=O)C(=O)N[C@@H](CCCCN)C(=O)NCC(=O)N[C@@H](CCCCN)C(=O)N[C@@H](CCCCN)C(=O)N[C@@H](CC(N)=O)C(=O)N[C@@H](CC(=O)O)C(=O)N[C@@H](Cc1c[nH]c2ccccc12)C(=O)O)C(C)C)[C@@H](C)CC) [AT415] | 55 nM | 87% | -7.3 log M | 0% | 13.6 nM | 87% | 7.9 | 4.6
SGTFISDYSIAMDRIK([AEEA-AEEA-AEEA-γGlu-C16 diacid])QQDFVNWLLAQRGPSSGAPPPS-OH (N-terminus assumed; SMILES CC[C@H](C)[C@H](NC(=O)[C@H](CO)NC(=O)[C@H](Cc1ccc(O)cc1)NC(=O)[C@H](CC(=O)O)NC(=O)[C@H](CO)NC(=O)[C@@H](NC(=O)[C@H](Cc1ccccc1)NC(=O)[C@@H](NC(=O)CNC(=O)[C@@H](N)CO)[C@@H](C)O)[C@@H](C)CC)C(=O)N[C@@H](C)C(=O)N[C@@H](CCSC)C(=O)N[C@@H](CC(=O)O)C(=O)N[C@@H](CCCNC(=N)N)C(=O)N[C@H](C(=O)N[C@@H](CCCCNC(=O)COCCOCCNC(=O)COCCOCCNC(=O)COCCOCCNC(=O)CC[C@H](NC(=O)CCCCCCCCCCCCCCC(=O)O)C(=O)O)C(=O)N[C@@H](CCC(N)=O)C(=O)N[C@@H](CCC(N)=O)C(=O)N[C@@H](CC(=O)O)C(=O)N[C@@H](Cc1ccccc1)C(=O)N[C@H](C(=O)N[C@@H](CC(N)=O)C(=O)N[C@@H](Cc1c[nH]c2ccccc12)C(=O)N[C@@H](CC(C)C)C(=O)N[C@@H](CC(C)C)C(=O)N[C@@H](C)C(=O)N[C@@H](CCC(N)=O)C(=O)N[C@@H](CCCNC(=N)N)C(=O)NCC(=O)N1CCC[C@H]1C(=O)N[C@@H](CO)C(=O)N[C@@H](CO)C(=O)NCC(=O)N[C@@H](C)C(=O)N1CCC[C@H]1C(=O)N1CCC[C@H]1C(=O)N1CCC[C@H]1C(=O)N[C@@H](CO)C(=O)O)C(C)C)[C@@H](C)CC) [AT440] | 103 nM | 100% | -7 log M |  |  |  |  | 
EGTFISDYSIAMDKIK(C16 diacid)QQDFVNWLLAQKGPSS-OH (N-terminus assumed; SMILES CC[C@H](C)[C@H](NC(=O)[C@H](CO)NC(=O)[C@H](Cc1ccc(O)cc1)NC(=O)[C@H](CC(=O)O)NC(=O)[C@H](CO)NC(=O)[C@@H](NC(=O)[C@H](Cc1ccccc1)NC(=O)[C@@H](NC(=O)CNC(=O)[C@@H](N)CCC(=O)O)[C@@H](C)O)[C@@H](C)CC)C(=O)N[C@@H](C)C(=O)N[C@@H](CCSC)C(=O)N[C@@H](CC(=O)O)C(=O)N[C@@H](CCCCN)C(=O)N[C@H](C(=O)N[C@@H](CCCCNC(=O)CCCCCCCCCCCCCCC(=O)O)C(=O)N[C@@H](CCC(N)=O)C(=O)N[C@@H](CCC(N)=O)C(=O)N[C@@H](CC(=O)O)C(=O)N[C@@H](Cc1ccccc1)C(=O)N[C@H](C(=O)N[C@@H](CC(N)=O)C(=O)N[C@@H](Cc1c[nH]c2ccccc12)C(=O)N[C@@H](CC(C)C)C(=O)N[C@@H](CC(C)C)C(=O)N[C@@H](C)C(=O)N[C@@H](CCC(N)=O)C(=O)N[C@@H](CCCCN)C(=O)NCC(=O)N1CCC[C@H]1C(=O)N[C@@H](CO)C(=O)N[C@@H](CO)C(=O)O)C(C)C)[C@@H](C)CC) [AT472] | 15 nM | 100% | -7.8 log M | 0% | 7.94 nM | 90% | 8.1 | 
EGTFISDYSIAMDKIK(C16 diacid)QQDFVNWLLAQKGPSSG-OH (N-terminus assumed; SMILES CC[C@H](C)[C@H](NC(=O)[C@H](CO)NC(=O)[C@H](Cc1ccc(O)cc1)NC(=O)[C@H](CC(=O)O)NC(=O)[C@H](CO)NC(=O)[C@@H](NC(=O)[C@H](Cc1ccccc1)NC(=O)[C@@H](NC(=O)CNC(=O)[C@@H](N)CCC(=O)O)[C@@H](C)O)[C@@H](C)CC)C(=O)N[C@@H](C)C(=O)N[C@@H](CCSC)C(=O)N[C@@H](CC(=O)O)C(=O)N[C@@H](CCCCN)C(=O)N[C@H](C(=O)N[C@@H](CCCCNC(=O)CCCCCCCCCCCCCCC(=O)O)C(=O)N[C@@H](CCC(N)=O)C(=O)N[C@@H](CCC(N)=O)C(=O)N[C@@H](CC(=O)O)C(=O)N[C@@H](Cc1ccccc1)C(=O)N[C@H](C(=O)N[C@@H](CC(N)=O)C(=O)N[C@@H](Cc1c[nH]c2ccccc12)C(=O)N[C@@H](CC(C)C)C(=O)N[C@@H](CC(C)C)C(=O)N[C@@H](C)C(=O)N[C@@H](CCC(N)=O)C(=O)N[C@@H](CCCCN)C(=O)NCC(=O)N1CCC[C@H]1C(=O)N[C@@H](CO)C(=O)N[C@@H](CO)C(=O)NCC(=O)O)C(C)C)[C@@H](C)CC) [AT471] | 11 nM | 100% | -7.9 log M | 0% | 6.81 nM | 87% | 8.2 | 
SGTFISDYSIAMDRIK([AEEA-AEEA-AEEA-γGlu-C18 diacid])QQDFVNWLLAQRGPSSGAPPPS-OH (N-terminus assumed; SMILES CC[C@H](C)[C@H](NC(=O)[C@H](CO)NC(=O)[C@H](Cc1ccc(O)cc1)NC(=O)[C@H](CC(=O)O)NC(=O)[C@H](CO)NC(=O)[C@@H](NC(=O)[C@H](Cc1ccccc1)NC(=O)[C@@H](NC(=O)CNC(=O)[C@@H](N)CO)[C@@H](C)O)[C@@H](C)CC)C(=O)N[C@@H](C)C(=O)N[C@@H](CCSC)C(=O)N[C@@H](CC(=O)O)C(=O)N[C@@H](CCCNC(=N)N)C(=O)N[C@H](C(=O)N[C@@H](CCCCNC(=O)COCCOCCNC(=O)COCCOCCNC(=O)COCCOCCNC(=O)CC[C@H](NC(=O)CCCCCCCCCCCCCCCCC(=O)O)C(=O)O)C(=O)N[C@@H](CCC(N)=O)C(=O)N[C@@H](CCC(N)=O)C(=O)N[C@@H](CC(=O)O)C(=O)N[C@@H](Cc1ccccc1)C(=O)N[C@H](C(=O)N[C@@H](CC(N)=O)C(=O)N[C@@H](Cc1c[nH]c2ccccc12)C(=O)N[C@@H](CC(C)C)C(=O)N[C@@H](CC(C)C)C(=O)N[C@@H](C)C(=O)N[C@@H](CCC(N)=O)C(=O)N[C@@H](CCCNC(=N)N)C(=O)NCC(=O)N1CCC[C@H]1C(=O)N[C@@H](CO)C(=O)N[C@@H](CO)C(=O)NCC(=O)N[C@@H](C)C(=O)N1CCC[C@H]1C(=O)N1CCC[C@H]1C(=O)N1CCC[C@H]1C(=O)N[C@@H](CO)C(=O)O)C(C)C)[C@@H](C)CC) [AT442] | 26 nM | 77% | -7.6 log M |  |  |  |  | 

Source: US20220298218A1 (ANTAG THERAPEUTICS, published 2022)
